This passage reports amount of peptide results from patent publication US20150299255A1.

The assay deals with lectin SNA1 from Sambucus nigra (Sambucus nigra), Q41358. In words: solid-phase assay, peptide titrated into wells containing bound lectin (FIG. 7).
lectin SNA1 from Sambucus nigra (Sambucus nigra), Q41358, sequence (Q41358 29-289 limits assumed, chain 1 of 2): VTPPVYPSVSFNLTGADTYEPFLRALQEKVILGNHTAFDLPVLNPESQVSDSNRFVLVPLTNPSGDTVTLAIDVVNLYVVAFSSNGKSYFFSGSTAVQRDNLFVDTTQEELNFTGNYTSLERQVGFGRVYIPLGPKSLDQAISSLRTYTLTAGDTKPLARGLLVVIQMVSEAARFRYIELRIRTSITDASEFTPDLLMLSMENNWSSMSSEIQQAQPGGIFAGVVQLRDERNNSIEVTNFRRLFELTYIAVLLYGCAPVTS
lectin SNA1 from Sambucus nigra (Sambucus nigra), Q41358, sequence (Q41358 309-570 limits assumed, chain 2 of 2): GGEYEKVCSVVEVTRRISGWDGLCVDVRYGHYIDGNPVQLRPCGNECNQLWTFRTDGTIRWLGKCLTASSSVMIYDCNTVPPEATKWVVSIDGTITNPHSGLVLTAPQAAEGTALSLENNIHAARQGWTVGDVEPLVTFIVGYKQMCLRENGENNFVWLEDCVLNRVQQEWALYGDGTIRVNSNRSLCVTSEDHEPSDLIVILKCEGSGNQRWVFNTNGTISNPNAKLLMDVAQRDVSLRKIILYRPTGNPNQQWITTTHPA

B1: biotinylated quadravalent SVH1C (peptide)
peptide: NPSHPLSGGGGS
chain: KKKK
modifications: not checked
As to B1, the amount of peptide at half-maximal binding (pmoles peptide per well) stood at 25.
